Data reported in US20050085421A1.

Biological target: GHSR-1a
Test: 125I-ghrelin saturation binding on GHSR-1a membranes (typical value of membrane stock)

Bmax: 6 fmol/µg
Substance: 125I-ghrelin (peptide)
